According to article PMC11900463:
Positions count from the first letter of the chain named. Names may count otherwise.

B1: 6xHis-tagged C281S tsHO-2 (enzyme)
chain: MADLSELLKEGTKEAHDRAENTQFVKDFLKGNIKKELFKLATTALYFTYSALEEEMDRNKDHPAFAPLYFPTELHRKEALIKDMEYFFGENWEEQVKCSEAAQKYVDRIHYVGQNEPELLVAHAYTRYMGDLSGGQVLKKVAQRALKLPSTGEGTQFYLFEHVDNAQQFKQFYRARMNALDLSMKTKERIVEEANKAFEYNMQIFSELDQAGSMLTKETLEDGLPVHDGKGDVRKCPFYAAQPDKGTLGGSNSPFRTAMAVLRK
B2: 6xHis-tagged C264S tsHO-2 (enzyme)
chain: B1 chain with C236S, S253C
B3: 6xHis-tagged C264S/C281S tsHO-2 (enzyme)
chain: B1 chain with C236S

target: T1, sCPR (truncated soluble form of rat NADPH–cytochrome P450 reductase) (rat) (UniProt P00388)
T1 sequence (P00388 whole entry, looked up): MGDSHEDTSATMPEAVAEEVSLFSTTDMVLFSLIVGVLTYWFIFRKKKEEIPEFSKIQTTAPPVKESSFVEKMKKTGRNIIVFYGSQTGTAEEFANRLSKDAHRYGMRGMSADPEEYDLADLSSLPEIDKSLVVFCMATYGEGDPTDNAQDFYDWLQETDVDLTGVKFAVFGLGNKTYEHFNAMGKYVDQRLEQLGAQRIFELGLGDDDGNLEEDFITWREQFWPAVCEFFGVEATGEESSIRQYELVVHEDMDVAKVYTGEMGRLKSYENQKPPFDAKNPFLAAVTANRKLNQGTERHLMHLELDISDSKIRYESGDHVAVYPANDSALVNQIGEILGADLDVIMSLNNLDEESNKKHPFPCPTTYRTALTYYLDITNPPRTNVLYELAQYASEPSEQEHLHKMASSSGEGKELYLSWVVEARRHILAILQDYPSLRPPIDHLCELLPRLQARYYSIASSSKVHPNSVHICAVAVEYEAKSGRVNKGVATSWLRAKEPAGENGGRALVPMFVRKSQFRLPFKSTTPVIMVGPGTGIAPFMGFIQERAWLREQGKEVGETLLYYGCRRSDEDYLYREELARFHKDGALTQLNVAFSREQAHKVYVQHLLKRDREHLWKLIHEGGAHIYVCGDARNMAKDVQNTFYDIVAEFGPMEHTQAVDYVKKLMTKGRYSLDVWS

Molecule	apparent reduction rate constant of heme by sCPR (formation of the CO-bound heme complex, CO-saturated, anaerobic, 30 °C; non-His-tagged enzyme)	enzymatic activity (rate of bilirubin formation at 37 °C with 2.9 μM sCPR, 40 μM heme, NADPH; non-His-tagged enzyme)
6xHis-tagged ΔHRM tsHO-2 (from UniProt P23711 29-292) (enzyme)	106 min⁻¹	14.3 min⁻¹
B1	89.6 min⁻¹	7.32 min⁻¹
B2	93.2 min⁻¹	4.91 min⁻¹
B3	113 min⁻¹	11.2 min⁻¹
